# Test results reported in the Immune Epitope Database (IEDB).
# pIC50, pKd: −log10 of the molar value.
# Experiments:
# [1] = target: HLA-A*68:02; assay: IEDB peptide-MHC binding, purified MHC/competitive/radioactivity; filed as Kd, often an IC50 or EC50 that approximates it; ≥ and ≤ were set here for values at or beyond the usual limits of such assays
# [2] = target: HLA-B*07:02; assay: as above
# [3] = target: HLA-B*54:01; assay: as above
# [4] = target: HLA-A*02:02; assay: as above
# [5] = target: HLA-B*53:01; assay: as above
# [6] = target: HLA-B*35:01; assay: as above
# [7] = target: HLA-A*68:01; assay: as above
# [8] = target: HLA-A*02:01; assay: as above
# [9] = target: HLA-A*02:03; assay: as above
# [10] = target: HLA-A*11:01; assay: as above
# [11] = target: HLA-B*51:01; assay: as above
# [12] = target: HLA-A*31:01; assay: as above
# [13] = target: HLA-A*03:01; assay: as above
# [14] = target: HLA-A*02:06; assay: as above
# [15] = target: HLA-A*33:01; assay: as above
# [16] = target: HLA-A*29:02; assay: IEDB peptide-MHC binding, purified MHC/competitive/fluorescence; filed as Kd, often an IC50 or EC50 that approximates it; ≥ and ≤ were set here for values at or beyond the usual limits of such assays
# [17] = target: HLA-A*02:01; assay: IEDB peptide-MHC binding, purified MHC/competitive/fluorescence; ≥ and ≤ were set here for values at or beyond the usual limits of such assays
# [18] = target: HLA-A*11:01; assay: as above
# [19] = target: HLA-A*24:02; assay: as above
# [20] = target: HLA-B*40:01; assay: IEDB peptide-MHC binding, purified MHC/direct/fluorescence; filed as Kd, often an IC50 or EC50 that approximates it; ≥ and ≤ were set here for values at or beyond the usual limits of such assays
# [21] = target: HLA-B*18:01; assay: as above
# [22] = target: HLA-A*26:01; assay: as above; conditions: source organism: Mammarenavirus amapariense
# [23] = target: HLA-A*03:01; assay: IEDB peptide-MHC binding, purified MHC/competitive/fluorescence; ≥ and ≤ were set here for values at or beyond the usual limits of such assays
# [24] = target: HLA-B*44:02; assay: IEDB peptide-MHC binding, purified MHC/direct/fluorescence; filed as Kd, often an IC50 or EC50 that approximates it; ≥ and ≤ were set here for values at or beyond the usual limits of such assays; conditions: source organism: Influenza A virus (A/chicken/CA/375TR/2002(H6N2))
# [25] = target: HLA-A*01:01; assay: IEDB peptide-MHC binding, purified MHC/competitive/radioactivity; filed as Kd, often an IC50 or EC50 that approximates it; ≥ and ≤ were set here for values at or beyond the usual limits of such assays
# [26] = target: HLA-A*26:01; assay: as above
# [27] = target: HLA-B*48:01; assay: IEDB peptide-MHC binding, purified MHC/direct/fluorescence; filed as Kd, often an IC50 or EC50 that approximates it; ≥ and ≤ were set here for values at or beyond the usual limits of such assays
# [28] = target: HLA-B*08:01; assay: as above; conditions: source organism: Yersinia pestis CA88-4125
# [29] = target: HLA-A*24:03; assay: as above; conditions: source organism: Amur virus
# [30] = source organism: Vaccinia virus WR
# [31] = source organism: Dengue virus 2 Jamaica/1409/1983
# [32] = source organism: Dengue virus 1 Brazil/97-11/1997
# [33] = source organism: Sudan ebolavirus
# [34] = source organism: Burkholderia ambifaria AMMD
# [35] = source organism: Dengue virus 4 Philippines/H241/1956
# [36] = source organism: Trypanosoma cruzi
# [37] = source organism: Hepacivirus hominis
# [38] = source organism: Influenza A virus (A/chicken/CA/375TR/2002(H6N2))
# [39] = source organism: Zaire ebolavirus
# [40] = source organism: Vaccinia virus Copenhagen
# [41] = source organism: Francisella tularensis subsp. holarctica LVS
# [42] = source organism: Dengue virus 3 Martinique/1243/1999
# [43] = source organism: SARS coronavirus Tor2
sequence,measurement,setting,value
NLPIYSEEIV,pKd,[1]; source organism: Homo sapiens,6.01
AFVRFSTDK,pKd,[2]; [30],≤ 4.11
same,pKd,[1]; [30],≤ 4.11
same,pKd,[3]; [30],≤ 4.11
same,pKd,[4]; [30],≤ 4.11
same,pKd,[5]; [30],≤ 4.11
same,pKd,[6]; [30],≤ 4.47
same,pKd,[7]; [30],≤ 4.24
same,pKd,[8]; [30],≤ 4.11
same,pKd,[9]; [30],≤ 4.11
same,pKd,[10]; [30],5.07
same,pKd,[11]; [30],≤ 4.11
same,pKd,[12]; [30],5.51
same,pKd,[13]; [30],≤ 4.60
same,pKd,[14]; [30],≤ 4.11
same,pKd,[15]; [30],≤ 4.11
LVAFLRFLTI,pKd,[1]; [31],6.99
TSHNILVEV,pKd,[1]; [32],8.13
VDFGIIWRY,pKd,[16]; source organism: Vibrio cholerae 2740-80,7.00
STSDGKHLQ,pKd,[16]; source organism: Cryptosporidium parvum Iowa II,6.55
YDPARYPLY,pKd,[16]; source organism: Vibrio vulnificus YJ016,7.52
LIWTLDANI,pIC50,[17]; [33],6.32
same,pIC50,[18]; [33],≤ 3.78
same,pIC50,[19]; [33],≤ 4.09
AELHAKGAY,pKd,[20]; [34],≤ 4.70
same,pKd,[21]; [34],5.95
EKPGNRNPY,pKd,[22],5.56
EVLTLATGPV,pKd,[1]; [35],7.63
LVGLWGAAAL,pKd,[1]; [36],5.28
same,pKd,[4]; [36],7.05
same,pKd,[8]; [36],6.16
same,pKd,[9]; [36],7.02
same,pKd,[14]; [36],6.40
GLRKRSRRQ,pIC50,[23]; [33],4.33
MTIHFFLNE,pKd,[16]; source organism: Entamoeba histolytica HM-1:IMSS,6.72
GLSLLQLPR,pIC50,[17]; [33],4.77
same,pIC50,[18]; [33],5.45
same,pIC50,[23]; [33],5.66
VLSDFRTWL,pKd,[1]; [37],5.28
same,pKd,[4]; [37],8.76
same,pKd,[8]; [37],8.75
same,pKd,[9]; [37],8.14
same,pKd,[14]; [37],6.52
STIGYALKH,pKd,[16]; source organism: Bacillus anthracis str. CDC 684,7.40
REITFHGAK,pKd,[24],≤ 4.70
same,pKd,[20]; [38],6.39
same,pKd,[21]; [38],5.91
MTTEDMLSV,pKd,[1]; [32],7.97
same,pKd,[25]; [32],5.30
same,pKd,[26]; [32],5.90
same,pKd,[14]; [32],7.97
YKLDISEAT,pIC50,[17]; [39],≤ 3.80
same,pIC50,[18]; [39],≤ 3.86
same,pIC50,[19]; [39],4.53
KFYSKISEY,pIC50,[23]; source organism: Human papillomavirus 16,5.52
AEWGWTATM,pKd,[27]; source organism: Giardia lamblia ATCC 50803,≤ 4.70
FTVVSNGAK,pIC50,[18]; [39],5.82
same,pIC50,[23]; [39],4.75
LMDSIFVST,pKd,[2]; [40],≤ 4.11
same,pKd,[1]; [40],5.75
same,pKd,[3]; [40],5.28
same,pKd,[4]; [40],9.46
same,pKd,[5]; [40],≤ 4.11
same,pKd,[6]; [40],≤ 4.11
same,pKd,[7]; [40],≤ 4.11
same,pKd,[9]; [40],6.63
same,pKd,[10]; [40],≤ 4.11
same,pKd,[11]; [40],≤ 4.11
same,pKd,[12]; [40],≤ 4.44
same,pKd,[13]; [40],≤ 4.11
same,pKd,[14]; [40],7.51
same,pKd,[15]; [40],≤ 4.26
LMISGDLPQ,pKd,[16]; source organism: Sinorhizobium meliloti 1021,7.43
SMKTRTAWF,pKd,[28],8.15
AEVCAHHLF,pKd,[20]; [41],8.46
same,pKd,[21]; [41],8.44
NAICSAVPV,pKd,[1]; [32],8.50
KLYKNKSKQ,pIC50,[17]; [40],≤ 4.09
same,pIC50,[18]; [40],≤ 2.87
same,pIC50,[23]; [40],5.52
MHTDLELDF,pKd,[29],5.31
FTILALFLA,pKd,[1]; [42],7.45
same,pKd,[14]; [42],9.13
MPYVFTLLF,pKd,[2]; [43],6.96
same,pKd,[3]; [43],7.51
same,pKd,[5]; [43],9.91
same,pKd,[6]; [43],9.23
same,pKd,[11]; [43],8.39
SGTEKEFLR,pIC50,[18]; source organism: Vaccinia virus,≤ 3.39
HSIENSSVNV,pKd,[1]; [31],7.51
ETALMVIGM,pKd,[1]; [35],7.98
same,pKd,[26]; [35],6.51
GSIGGVFTSV,pKd,[1]; [32],7.70
LPTLFGRGV,pKd,[2]; [30],8.08
same,pKd,[3]; [30],8.70
same,pKd,[5]; [30],6.02
same,pKd,[6]; [30],5.89
same,pKd,[11]; [30],8.22
ETFSMGLLCL,pKd,[1]; [35],8.18
same,pKd,[25]; [35],5.13
same,pKd,[26]; [35],6.54
LLPAVSSGK,pIC50,[17]; [39],≤ 4.13
same,pIC50,[18]; [39],5.44
same,pIC50,[23]; [39],5.72
same,pIC50,[19]; [39],≤ 4.10
RKNGGNFLL,pKd,[27]; source organism: Campylobacter jejuni subsp. jejuni 81116,6.84
CSAVPSHWV,pKd,[1]; [31],8.04
GPMPYMISTY,pKd,[2]; [30],6.05
same,pKd,[3]; [30],5.82
same,pKd,[5]; [30],6.57
same,pKd,[6]; [30],7.05
same,pKd,[11]; [30],≤ 4.19
VTGILQLPR,pIC50,[18]; [39],6.44
same,pIC50,[23]; [39],5.17
NTPEGIIPAL,pKd,[1]; [32],7.69
DEYQGNHMF,pKd,[21]; source organism: Vibrio parahaemolyticus,9.22
